Measurements as given in paper doi:10.1101/2024.12.23.630133 (bioRxiv, 2024).

Molecular target: the molecule itself
Experiment: single-molecule GFP photobleaching

B1: HCN1SM (GFP-tagged human HCN1 channel) (natural protein)
chain: MEGGGKPNSSSNSRDDGNSVFPAKASATGAGPAAAEKRLGTPPGGGGAGAKEHGNSVCFKVDGGGGGGGGGGGGEEPAGGFEDAEGPRRQYGFMQRQFTSMLQPGVNKFSLRMFGSQKAVEKEQERVKTAGFWIIHPYSDFRFYWDLIMLIMMVGNLVIIPVGITFFTEQTTTPWIIFNVASDTVFLLDLIMNFRTGTVNEDSSEIILDPKVIKMNYLKSWFVVDFISSIPVDYIFLIVEKGMDSEVYKTARALRIVRFTKILSLLRLLRLSRLIRYIHQWEEIFHMTYDLASAVVRIFNLIGMMLLLCHWDGCLQFLVPLLQDFPPDCWVSLNEMVNDSWGKQYSYALFKAMSHMLCIGYGAQAPVSMSDLWITMLSMIVGATCYAMFVGHATALIQSLDSSRRQYQEKYKQVEQYMSFHKLPADMRQKIHDYYEHRYQGKIFDEENILNELNDPLREEIVNFNCRKLVATMPLFANADPNFVTAMLSKLRFEVFQPGDYIIREGAVGKKMYFIQHGVAGVITKSSKEMKLTDGSYFGEICLLTKGRRTASVRADTYCRLYSLSVDNFNEVLEEYPMMRRAFETVAIDRLDRIGKKNSILLQKFQKDLNTGVFNNQENEILKQIVKHDREMVQAIAPINYPQMTTLNSTSSTTTPTSRMRTQSPPVYTATSLSHSNLHSPSPSTQTPQPSAILSPCSYTTAVCSPPVQSPLAARTFHYASPTASQLSLMQQQPQQQVQQSQPPQTQPQQPSPQPQTPGSSTPKNEVHKSTQALHNTNLTREVRPLSASQPSLPHEVSTLISRPHPTVGESLASIPQPVTAVPGTGLQAGGRSTVPQRVTLFRQMSSGAIPPNRGVPPAPPPPAAALPRESSSVLNTDPDAEKPRFASNL
stoichiometry N: 4
